For assay [1], the target named is full-length Kluyveromyces lactis (Kl) Kap123, wild type (Kluyveromyces lactis). Nature of the assay: SPR; wild-type Kl Kap123 immobilised on a CM5 chip (10 mM acetate pH 4.0); wild-type or mutant H3 or H4 peptides injected at 30 μl/min in binding buffer (10 mM HEPES, 150 mM NaCl); 7°C.
The next assay deals with MBP-tagged Kap123. The experiment in a line: amylose affinity pull-down competition assay. The conditions noted are these: pre-assembled MBP-Kap123 and H3 1-59-Sumo, value at 0X set to 1.0, read off a plot.
Chain of MBP-tagged Kap123 (chain, as listed by the source): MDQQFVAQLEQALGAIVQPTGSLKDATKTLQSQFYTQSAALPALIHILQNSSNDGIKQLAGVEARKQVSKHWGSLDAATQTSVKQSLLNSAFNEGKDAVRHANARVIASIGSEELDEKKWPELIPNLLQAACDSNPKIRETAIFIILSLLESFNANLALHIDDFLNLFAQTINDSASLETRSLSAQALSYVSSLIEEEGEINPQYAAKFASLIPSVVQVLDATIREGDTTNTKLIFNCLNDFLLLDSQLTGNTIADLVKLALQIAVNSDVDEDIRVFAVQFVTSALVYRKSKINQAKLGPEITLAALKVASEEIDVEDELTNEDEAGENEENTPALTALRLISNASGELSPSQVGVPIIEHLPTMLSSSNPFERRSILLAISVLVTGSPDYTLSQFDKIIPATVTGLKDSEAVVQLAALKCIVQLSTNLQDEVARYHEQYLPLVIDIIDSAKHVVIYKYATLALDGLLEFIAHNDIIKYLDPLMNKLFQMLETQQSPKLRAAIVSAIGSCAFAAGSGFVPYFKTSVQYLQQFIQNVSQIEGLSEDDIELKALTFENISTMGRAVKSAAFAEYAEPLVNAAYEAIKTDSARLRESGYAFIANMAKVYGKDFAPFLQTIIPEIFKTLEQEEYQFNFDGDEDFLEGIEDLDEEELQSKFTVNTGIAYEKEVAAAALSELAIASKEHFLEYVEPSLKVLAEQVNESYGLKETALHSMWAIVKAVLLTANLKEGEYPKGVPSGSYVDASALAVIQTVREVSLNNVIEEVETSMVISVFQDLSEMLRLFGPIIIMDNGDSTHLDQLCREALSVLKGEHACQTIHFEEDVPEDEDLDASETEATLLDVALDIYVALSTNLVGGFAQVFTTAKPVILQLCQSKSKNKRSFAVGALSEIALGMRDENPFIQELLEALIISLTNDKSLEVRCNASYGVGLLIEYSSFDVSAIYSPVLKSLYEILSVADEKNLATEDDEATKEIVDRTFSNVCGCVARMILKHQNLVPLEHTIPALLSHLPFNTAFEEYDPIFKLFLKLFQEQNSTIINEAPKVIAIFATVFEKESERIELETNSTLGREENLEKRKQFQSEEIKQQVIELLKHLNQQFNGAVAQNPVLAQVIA

The substance “wild-type H3_(1–35)-NLS peptide (injected as analyte) (from UniProt P61830 2-36)” returned a fold affinity relative to H4-NLS in assay [1] of 5 fold.

For “C-terminal Sumo-tagged histone H4_(1–48), P02309 K5Q; K8Q; K12Q”, the other: relative intensity of H3 1-59-Sumo remaining bound to Kap123 after competition was determined as 0.99 with MBP-tagged Kap123 (competitor at 1X, parent: est. 0.88); 0.99 with MBP-tagged Kap123 (competitor at 2X, parent: est. 0.67); 0.94 in the assay with MBP-tagged Kap123 (competitor at 5X, parent: est. 0.32); 0.96 with MBP-tagged Kap123 (competitor at 10X, parent: est. 0.13).
